Measurements taken from PMC9482650, “Quantitative fragmentomics allow affinity mapping of interactomes” (Nature Communications, 2022).

T1: ARHGEF11, O15085
T1 sequence (O15085 42-136, limits assumed, looked up): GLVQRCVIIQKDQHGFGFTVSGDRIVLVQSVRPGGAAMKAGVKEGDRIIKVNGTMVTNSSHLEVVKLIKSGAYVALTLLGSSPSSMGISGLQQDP

T2: DFNB31_2, Q9P202
T2 sequence (Q9P202 274-371, limits assumed, looked up): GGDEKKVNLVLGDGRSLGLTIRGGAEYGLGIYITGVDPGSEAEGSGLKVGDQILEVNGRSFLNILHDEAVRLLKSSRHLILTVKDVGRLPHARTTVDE

T3: GRIP1_2, Q9Y3R0
T3 sequence (Q9Y3R0 145-248, limits assumed, looked up): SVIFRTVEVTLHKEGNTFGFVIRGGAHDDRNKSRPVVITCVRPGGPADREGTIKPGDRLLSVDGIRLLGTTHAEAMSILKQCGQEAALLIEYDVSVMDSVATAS

T4: GRIP1_3, Q9Y3R0
T4 sequence (Q9Y3R0 247-346, limits assumed, looked up): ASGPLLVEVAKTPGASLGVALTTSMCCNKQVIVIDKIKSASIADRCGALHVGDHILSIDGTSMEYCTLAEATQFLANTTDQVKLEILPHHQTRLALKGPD

T5: GRIP1_5, Q9Y3R0
T5 sequence (Q9Y3R0 568-668, limits assumed, looked up): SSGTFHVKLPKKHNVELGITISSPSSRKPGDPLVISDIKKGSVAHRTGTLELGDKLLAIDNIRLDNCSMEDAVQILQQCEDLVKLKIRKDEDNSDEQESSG

T6: GRIP1_7, Q9Y3R0
T6 sequence (Q9Y3R0 999-1096, limits assumed, looked up): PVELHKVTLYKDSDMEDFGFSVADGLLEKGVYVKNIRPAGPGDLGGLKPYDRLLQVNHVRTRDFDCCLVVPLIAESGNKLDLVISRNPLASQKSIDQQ

T7: MPP6, Q9NZW5
T7 sequence (Q9NZW5 125-219, limits assumed, looked up): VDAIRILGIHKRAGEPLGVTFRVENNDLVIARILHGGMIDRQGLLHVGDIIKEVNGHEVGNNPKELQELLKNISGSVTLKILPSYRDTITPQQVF

T8: PCLO, Q9Y6V0
T8 sequence (Q9Y6V0 4491-4600, limits assumed, looked up): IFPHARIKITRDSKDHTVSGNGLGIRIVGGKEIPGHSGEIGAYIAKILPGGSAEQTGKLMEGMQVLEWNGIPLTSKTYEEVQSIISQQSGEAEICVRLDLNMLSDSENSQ

T9: PDZD2_2, O15018
T9 sequence (O15018 329-429, limits assumed, looked up): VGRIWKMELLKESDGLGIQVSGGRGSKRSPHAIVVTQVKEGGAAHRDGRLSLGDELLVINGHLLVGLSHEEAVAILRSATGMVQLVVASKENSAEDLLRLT

T10: RAPGEF6, Q8TEU7
T10 sequence (Q8TEU7 525-625, limits assumed, looked up): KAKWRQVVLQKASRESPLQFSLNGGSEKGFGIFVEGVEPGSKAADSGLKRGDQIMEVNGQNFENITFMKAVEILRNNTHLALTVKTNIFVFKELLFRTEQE


Assays:
Test in all cases: holdup assay
Set-up in all cases: key: below the threshold = too weak to quantify, mostly under pKd 3.1 to 4
Details in all cases: plain residues with an end cap or a label only (N-terminal biotin on a linker: ado-ado)
[1] = target: AHNAK1, Q09666
Sequence of AHNAK1, Q09666 (Q09666 4-100): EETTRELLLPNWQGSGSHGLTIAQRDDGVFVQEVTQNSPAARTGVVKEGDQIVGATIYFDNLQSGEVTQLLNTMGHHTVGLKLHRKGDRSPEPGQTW

[2] = target: T1, ARHGEF11, O15085
[3] = target: T2, DFNB31_2, Q9P202
[4] = target: GIPC2, Q8TF65
Sequence of GIPC2, Q8TF65 (Q8TF65 112-203): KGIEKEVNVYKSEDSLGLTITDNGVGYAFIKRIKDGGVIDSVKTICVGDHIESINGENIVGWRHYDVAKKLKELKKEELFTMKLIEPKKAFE

[5] = target: GORASP1, Q9BQQ3
Sequence of GORASP1, Q9BQQ3 (Q9BQQ3 1-208): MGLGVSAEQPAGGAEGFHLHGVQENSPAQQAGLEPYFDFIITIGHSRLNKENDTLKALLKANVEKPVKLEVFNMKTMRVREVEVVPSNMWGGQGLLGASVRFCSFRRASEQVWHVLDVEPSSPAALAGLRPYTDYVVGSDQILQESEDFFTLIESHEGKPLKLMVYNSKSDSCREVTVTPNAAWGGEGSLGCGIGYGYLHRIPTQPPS

[6] = target: GRID2IP_2, A4D2P6
Sequence of GRID2IP_2, A4D2P6 (A4D2P6 272-370): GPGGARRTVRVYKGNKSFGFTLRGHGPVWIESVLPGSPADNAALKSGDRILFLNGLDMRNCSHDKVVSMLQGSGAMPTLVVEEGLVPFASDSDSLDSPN

[7] = target: T3, GRIP1_2, Q9Y3R0
[8] = target: T4, GRIP1_3, Q9Y3R0
[9] = target: T5, GRIP1_5, Q9Y3R0
[10] = target: T6, GRIP1_7, Q9Y3R0
[11] = target: GRIP2_6, Q9C0E4
Sequence of GRIP2_6, Q9C0E4 (Q9C0E4 648-740): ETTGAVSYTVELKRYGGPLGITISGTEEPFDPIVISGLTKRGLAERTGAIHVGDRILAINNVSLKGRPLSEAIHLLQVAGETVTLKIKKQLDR

[12] = target: GRIP2_7, Q9C0E4
Sequence of GRIP2_7, Q9C0E4 (Q9C0E4 934-1023): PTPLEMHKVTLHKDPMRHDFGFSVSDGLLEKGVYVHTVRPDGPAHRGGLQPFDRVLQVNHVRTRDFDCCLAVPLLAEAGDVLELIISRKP

[13] = target: Inadl_10, Q8NI35
Sequence of Inadl_10, Q8NI35 (Q8NI35 1673-1763): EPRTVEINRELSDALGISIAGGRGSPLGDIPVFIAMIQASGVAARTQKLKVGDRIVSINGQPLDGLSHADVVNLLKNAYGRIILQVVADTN

[14] = target: Inadl_2, Q8NI35
Sequence of Inadl_2, Q8NI35 (Q8NI35 238-335): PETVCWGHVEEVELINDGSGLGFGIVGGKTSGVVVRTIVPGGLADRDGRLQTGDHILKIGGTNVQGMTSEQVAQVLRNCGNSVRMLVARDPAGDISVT

[15] = target: Inadl_3, Q8NI35
Sequence of Inadl_3, Q8NI35 (Q8NI35 359-469): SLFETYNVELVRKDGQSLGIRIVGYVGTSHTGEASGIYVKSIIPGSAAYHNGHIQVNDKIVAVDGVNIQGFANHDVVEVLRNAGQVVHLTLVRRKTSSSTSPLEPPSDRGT

[16] = target: Inadl_6, Q8NI35
Sequence of Inadl_6, Q8NI35 (Q8NI35 1058-1167): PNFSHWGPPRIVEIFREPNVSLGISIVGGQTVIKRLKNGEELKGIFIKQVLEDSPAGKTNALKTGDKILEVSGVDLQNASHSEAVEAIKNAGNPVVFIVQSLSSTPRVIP

[17] = target: Inadl_8, Q8NI35
Sequence of Inadl_8, Q8NI35 (Q8NI35 1425-1530): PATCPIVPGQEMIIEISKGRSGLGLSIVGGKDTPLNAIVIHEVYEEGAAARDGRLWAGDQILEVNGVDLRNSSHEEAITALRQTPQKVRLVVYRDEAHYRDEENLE

[18] = target: LIMK2, P53671
Sequence of LIMK2, P53671 (P53671 143-248): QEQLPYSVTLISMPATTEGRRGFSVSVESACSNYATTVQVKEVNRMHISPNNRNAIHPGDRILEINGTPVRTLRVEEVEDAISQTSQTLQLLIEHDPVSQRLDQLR

[19] = target: MAGI1_2, Q96QZ7
Sequence of MAGI1_2, Q96QZ7 (Q96QZ7 456-580): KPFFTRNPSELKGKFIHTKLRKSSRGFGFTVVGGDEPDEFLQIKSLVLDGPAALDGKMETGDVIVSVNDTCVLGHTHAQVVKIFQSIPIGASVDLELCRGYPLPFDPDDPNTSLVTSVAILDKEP

[20] = target: MAGI2_5, Q86UL8
Sequence of MAGI2_5, Q86UL8 (Q86UL8 915-1017): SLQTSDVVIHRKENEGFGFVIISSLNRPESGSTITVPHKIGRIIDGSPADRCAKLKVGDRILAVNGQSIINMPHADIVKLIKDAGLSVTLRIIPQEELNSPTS

[21] = target: MAST2, Q6P0Q8
Sequence of MAST2, Q6P0Q8 (Q6P0Q8 1099-1202): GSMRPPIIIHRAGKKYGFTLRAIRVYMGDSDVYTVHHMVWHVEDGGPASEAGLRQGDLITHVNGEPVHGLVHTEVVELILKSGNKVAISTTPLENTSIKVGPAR

[22] = target: T7, MPP6, Q9NZW5
[23] = target: T8, PCLO, Q9Y6V0
[24] = target: T9, PDZD2_2, O15018
[25] = target: PDZRN4_1, Q6ZMN7
Sequence of PDZRN4_1, Q6ZMN7 (Q6ZMN7 213-318): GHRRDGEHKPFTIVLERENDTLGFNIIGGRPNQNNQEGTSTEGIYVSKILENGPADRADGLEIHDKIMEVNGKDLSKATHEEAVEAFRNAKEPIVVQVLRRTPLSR

[26] = target: T10, RAPGEF6, Q8TEU7
[27] = target: SNX27, Q96L92
[28] = target: TJP2_1, Q9UDY2
Sequence of TJP2_1, Q9UDY2 (Q9UDY2 24-128): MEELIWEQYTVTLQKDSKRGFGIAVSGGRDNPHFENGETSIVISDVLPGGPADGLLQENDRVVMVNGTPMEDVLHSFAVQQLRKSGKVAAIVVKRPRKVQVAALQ

pKd [1]	pKd [2]	pKd [3]	pKd [4]	pKd [5]	pKd [6]	pKd [7]	pKd [8]	pKd [9]	pKd [10]	pKd [11]	pKd [12]	pKd [13]	pKd [14]	pKd [15]	pKd [16]	pKd [17]	pKd [18]	pKd [19]	pKd [20]	Binder	also measured
below the threshold	4.56	below the threshold	4.38	4.23	3.81	below the threshold	below the threshold	below the threshold	below the threshold	3.55	below the threshold	below the threshold	below the threshold	4.63	4.01	3.59	below the threshold	3.6	4.89	QELLEYETTV [XKR7, Q5GH72]	pKd [21]: 5.46; pKd [22]: below the threshold; pKd [23]: below the threshold; pKd [24]: 5.17; pKd [25]: 4.55; pKd [26]: below the threshold; pKd [27]: 5.77; pKd [28]: below the threshold
below the threshold	4.57	below the threshold	3.49	3.78	4.69	3.5	below the threshold	below the threshold	3.51	below the threshold	3.51	below the threshold	below the threshold	below the threshold	3.57	3.52	below the threshold	3.85	4.49	SKSLERATQL [COMMD3, Q9UBI1]	pKd [21]: 5.7; pKd [22]: below the threshold; pKd [23]: below the threshold; pKd [24]: 3.95; pKd [25]: 3.89; pKd [26]: 3.85; pKd [27]: 4.25; pKd [28]: 3.72
below the threshold	4.45	below the threshold	below the threshold	below the threshold	3.66	below the threshold	below the threshold	below the threshold	below the threshold	below the threshold	below the threshold	below the threshold	below the threshold	below the threshold	below the threshold	3.54	below the threshold	4.4	3.73	VISERNSTTV [C3AR1, Q16581]	pKd [21]: 5.2; pKd [22]: below the threshold; pKd [23]: below the threshold; pKd [24]: 4.55; pKd [25]: 3.63; pKd [26]: below the threshold; pKd [27]: 4.57; pKd [28]: below the threshold
below the threshold	4.65	3.6	below the threshold	4.31	4.13	below the threshold	below the threshold	below the threshold	below the threshold	below the threshold	below the threshold	3.6	below the threshold	3.94	3.89	5.46	below the threshold	4.84	4.12	REVVMRVTTV [MARCHF9, Q86YJ5]	pKd [21]: 5.59; pKd [22]: 3.63; pKd [23]: below the threshold; pKd [24]: 4.37; pKd [25]: 3.86; pKd [26]: below the threshold; pKd [27]: 5.46; pKd [28]: 3.92
below the threshold	3.47	below the threshold	below the threshold	3.78	below the threshold	below the threshold	below the threshold	below the threshold	below the threshold	below the threshold	below the threshold	below the threshold	below the threshold	below the threshold	below the threshold	below the threshold	below the threshold	4.43	below the threshold	WRSKRTDTLL [RAMP3, O60896]	pKd [21]: 5.45; pKd [22]: 3.75; pKd [23]: below the threshold; pKd [24]: 3.52; pKd [25]: 3.75; pKd [26]: below the threshold; pKd [27]: 4.31; pKd [28]: below the threshold
